Measured values taken from US20250353921A1 (ASTRIA THERAPEUTICS, published 2025).

Assays:
[1] = target: T1, Human FcRn protein (Acro Biosystems, catalog NO: FCN-H52W7) (human, UniProt P55899 24-297; P61769 21-119); assay: SPR Biacore 8K+, antibody immobilised, FcRn analyte, pH 6.0; pH 6.0
T1 construct: also called huFcRn

[2] = target: T2, Human CD32b, Sino Biological 10259-H08H (human, UniProt P31994 43-217); assay: SPR Biacore 8K+, receptor captured by anti-His, antibody as analyte
T2 construct: also called FcγRIIb
T2 sequence (looked up): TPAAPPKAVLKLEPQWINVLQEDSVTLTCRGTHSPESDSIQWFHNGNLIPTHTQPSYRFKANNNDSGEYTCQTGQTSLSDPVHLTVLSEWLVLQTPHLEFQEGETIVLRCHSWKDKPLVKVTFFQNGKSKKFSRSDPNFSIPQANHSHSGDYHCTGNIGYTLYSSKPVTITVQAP

[3] = target: Human CD64 (FcγRI), Sino Biological 10256-H08H (human, UniProt P12314 16-288); assay: as above
Sequence of Human CD64 (FcγRI), Sino Biological 10256-H08H (P12314 16-288 limits assumed): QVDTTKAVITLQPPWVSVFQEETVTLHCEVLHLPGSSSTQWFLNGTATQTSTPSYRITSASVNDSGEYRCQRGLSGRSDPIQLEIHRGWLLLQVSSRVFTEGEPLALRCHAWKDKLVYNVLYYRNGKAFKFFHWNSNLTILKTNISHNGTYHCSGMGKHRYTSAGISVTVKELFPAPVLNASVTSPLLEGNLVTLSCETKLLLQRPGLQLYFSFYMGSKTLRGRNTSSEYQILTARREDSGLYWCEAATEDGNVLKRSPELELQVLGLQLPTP

[4] = target: T3, Human CD32a (167 His), Sino Biological 10374-H08H1 (human, UniProt P12318 34-218); assay: as above
T3 construct: also called FcγRIIa167H
T3 sequence (looked up): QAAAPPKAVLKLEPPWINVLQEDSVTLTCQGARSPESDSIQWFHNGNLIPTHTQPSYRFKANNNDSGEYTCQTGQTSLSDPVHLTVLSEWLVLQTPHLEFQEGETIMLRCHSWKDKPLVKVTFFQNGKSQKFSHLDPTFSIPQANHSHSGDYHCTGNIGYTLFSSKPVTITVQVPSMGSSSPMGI

[5] = target: T4, Human CD16a (F176V), Sino Biological 10389-H08H1 (human, UniProt P08637 17-208); assay: as above
T4 construct: also called FcγRIIIa176V
T4 sequence (P08637 17-208 F176V limits assumed): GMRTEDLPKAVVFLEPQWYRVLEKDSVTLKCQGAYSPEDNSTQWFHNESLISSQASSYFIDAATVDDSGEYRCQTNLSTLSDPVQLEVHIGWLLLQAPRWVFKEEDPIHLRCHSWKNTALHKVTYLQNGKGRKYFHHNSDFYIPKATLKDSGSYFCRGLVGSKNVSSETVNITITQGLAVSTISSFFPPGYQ

[6] = target: T5, Human CD16b (NA2 allotype), Sino Biological 11046-H08H (human, UniProt O75015 17-200); assay: as above
T5 construct: also called FcγRIIIb
T5 sequence (O75015 17-200 N65S limits assumed): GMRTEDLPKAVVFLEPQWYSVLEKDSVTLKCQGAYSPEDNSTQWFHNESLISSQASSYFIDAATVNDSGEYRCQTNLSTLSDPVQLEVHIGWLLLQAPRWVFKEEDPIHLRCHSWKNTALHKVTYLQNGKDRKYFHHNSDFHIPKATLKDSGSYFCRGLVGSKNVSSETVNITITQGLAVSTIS

[7] = target: T6, Human CD32a (167 Arg), Sino Biological 10374-H08H (human, UniProt P12318 34-218); assay: as above
T6 construct: also called FcγRIIa167R
T6 sequence (looked up): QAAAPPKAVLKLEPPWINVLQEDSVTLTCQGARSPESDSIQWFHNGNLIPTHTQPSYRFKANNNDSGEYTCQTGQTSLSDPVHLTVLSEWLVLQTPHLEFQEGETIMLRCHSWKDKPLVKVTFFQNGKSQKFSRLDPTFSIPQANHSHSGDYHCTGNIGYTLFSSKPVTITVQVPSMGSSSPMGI

[8] = target: T7, Human CD16a (176F), Sino Biological 10389-H08H (human, UniProt P08637 17-208); assay: as above
T7 construct: also called FcγRIIIa176F
T7 sequence (P08637 17-208 limits assumed): as the sequence (P08637 17-208 F176V limits assumed) above, with V160F counted along it

[9] = target: T8, human OX40 (TNFRSF4, CD134) on cells (human, UniProt P43489 29-277); assay: cell-based or functional assay
T8 sequence: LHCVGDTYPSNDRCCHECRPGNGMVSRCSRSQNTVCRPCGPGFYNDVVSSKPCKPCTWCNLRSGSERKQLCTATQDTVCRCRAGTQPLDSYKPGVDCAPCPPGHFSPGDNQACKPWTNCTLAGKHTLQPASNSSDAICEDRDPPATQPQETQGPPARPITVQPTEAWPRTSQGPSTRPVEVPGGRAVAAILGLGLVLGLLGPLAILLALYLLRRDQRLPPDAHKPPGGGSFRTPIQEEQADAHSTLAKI

[10] = target: T8, human OX40 (TNFRSF4, CD134) on cells; assay: cell-based or functional assay; remark: listed apart in the source
[11] = target: T9, Human OX40 (Acro Biosystems, catalog NO: OXO-H5224) protein (human, UniProt P43489 29-216); assay: SPR Biacore 8K+, single cycle kinetics, antibody captured by anti-human Fc, OX40 analyte, pH 7.4, 25 °C
T9 construct: Bought protein; also called recombinant human OX40 receptor; recombinant human OX40 protein
T9 sequence: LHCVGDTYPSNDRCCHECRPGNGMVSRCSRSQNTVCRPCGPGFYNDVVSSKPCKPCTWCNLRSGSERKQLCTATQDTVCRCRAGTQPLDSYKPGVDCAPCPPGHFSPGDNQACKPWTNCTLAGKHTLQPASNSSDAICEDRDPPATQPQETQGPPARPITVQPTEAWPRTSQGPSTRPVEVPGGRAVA

[12] = target: T8, human OX40 (TNFRSF4, CD134) on cells; assay: flow cytometry on Jurkat-NF-κB-OX40 cells, detection with PE anti-human IgG Fc, occupancy in % of the saturating dose; no OX40L; time point (0 h or 5 h) not stated on the sheet
[13] = target: T8, human OX40 (TNFRSF4, CD134) on cells; assay: cell-based or functional assay; remark: listed apart in the source
[14] = target: T8, human OX40 (TNFRSF4, CD134) on cells; assay: cell-based or functional assay; remark: listed apart in the source

T1 sequence (P55899 24-297 limits assumed, chain 1 of 2): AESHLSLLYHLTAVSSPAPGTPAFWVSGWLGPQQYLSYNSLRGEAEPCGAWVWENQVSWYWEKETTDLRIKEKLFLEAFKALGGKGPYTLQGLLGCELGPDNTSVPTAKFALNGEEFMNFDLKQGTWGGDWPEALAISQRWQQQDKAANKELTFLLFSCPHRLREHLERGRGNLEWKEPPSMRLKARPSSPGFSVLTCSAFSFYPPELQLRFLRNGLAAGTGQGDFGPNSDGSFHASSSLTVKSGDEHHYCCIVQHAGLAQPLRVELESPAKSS
T1 sequence (P61769 21-119 limits assumed, chain 2 of 2): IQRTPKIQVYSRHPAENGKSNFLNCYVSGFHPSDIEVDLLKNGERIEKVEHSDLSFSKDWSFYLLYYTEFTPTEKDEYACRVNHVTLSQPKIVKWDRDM

B1: MAB1 IgG1 (antibody)
heavy: not shown
light: EIVLTQSPATLSLSPGERATLSCRASSSVSYMHWYQQKPGQAPRPWIYATSNRATGIPARFSGSGSGTDYTLTISSLEPEDFAVYYCQQFGAWPWTFGQGTKVEIKRTVAAPSVFIFPPSDEQLKSGTASVVCLLNNFYPREAKVQWKVDNALQSGNSQESVTEQDSKDSTYSLSSTLTLSKADYEKHKVYACEVTHQGLSSPVTKSFNRGEC
notes: Human IgG1, kappa
Kd [1]: 102 nM
Kd [2]: 11600 nM
Kd [3]: 5.4 nM
Kd [4]: 4030 nM
Kd [5]: 297 nM
Kd [6]: 3630 nM
Kd [7]: 6140 nM
Kd [8]: 334 nM
Fold diff to MAB10, maximum ADCC, activated T cells [9]: 1.31 fold
Maximum killing (%), ADCC, activated T cells [9]: 45.6%
EC50, inhibition of IFNγ release [10]: 14.6 nM
EC50, inhibition of IL-2 release [10]: 2.36 nM
EC50, inhibition of IL-4 release [10]: 2.83 nM
EC50, inhibition of IL-5 release [10]: 21.3 nM
EC50, inhibition of IL-8 release [10]: 9.19 nM
EC50, inhibition of IL-10 release [10]: 28 nM
EC50, inhibition of IL-13 release [10]: 6.2 nM
EC50, inhibition of IL-17a release [10]: 24.4 nM
EC50, inhibition of IL-21 release [10]: 2.56 nM
EC50, inhibition of IL-22 release [10]: 9.19 nM
EC50, inhibition of IL-31 release [10]: 2.51 nM
EC50, inhibition of TNF-α release [10]: 4.1 nM
Fold diff to GBR830, IFNγ [10]: 4.6 fold
Fold diff to GBR830, IL-2 [10]: 3.4 fold
Fold diff to GBR830, IL-4 [10]: 15.8 fold
Fold diff to GBR830, IL-5 [10]: 3 fold
Fold diff to GBR830, IL-8 [10]: 6.3 fold
Fold diff to GBR830, IL-10 [10]: 2.4 fold
Fold diff to GBR830, IL-13 [10]: 11.2 fold
Fold diff to GBR830, IL-21 [10]: 18.5 fold
Fold diff to GBR830, IL-31 [10]: 11.9 fold
Fold diff to GBR830, TNF-α [10]: 10.6 fold
Kd [11]: 6.8 nM
koff [11]: 0.0016 s⁻¹
kon [11]: 230000 M⁻¹ s⁻¹
EC50 (read off the curve) [12]: ~0.2 nM
ADCC EC50, regulatory T cells (LDH release) [13]: 0.28 nM
Fold diff to MAB10, ADCC EC50, regulatory T cells [13]: 8.25 fold
ADCC EC50, activated T cells (LDH release) [14]: 0.27 nM
Fold diff to MAB10, ADCC EC50, activated T cells [14]: 0.37 fold

B2: GBR 830 (telazorlimab) (antibody, human IgG1, kappa)
heavy: not shown
light: EIVLTQSPATLSLSPGERATLSCRASSSVSYMHWYQQKPGQAPRPWIYATSNRATGIPARFSGSGSGTDYTLTISSLEPEDFAVYYCQQWSSNPWTFGQGTKVEIKRTVAAPSVFIFPPSDEQLKSGTASVVCLLNNFYPREAKVQWKVDNALQSGNSQESVTEQDSKDSTYSLSSTLTLSKADYEKHKVYACEVTHQGLSSPVTKSFNRGEC
notes: IgG1; also called Antibody 830; ISB830
Kd [1]: 112 nM
Kd [2]: 7260 nM
Kd [3]: 6.2 nM
Kd [4]: 3410 nM
Kd [5]: 330 nM
Kd [6]: 3220 nM
Kd [7]: 4690 nM
Kd [8]: 365 nM
Fold diff to MAB10, maximum ADCC, activated T cells [9]: 1.14 fold
Maximum killing (%), ADCC, activated T cells [9]: 39.6%
EC50, inhibition of IFNγ release [10]: 66.7 nM
EC50, inhibition of IL-2 release [10]: 7.92 nM
EC50, inhibition of IL-4 release [10]: 44.8 nM
EC50, inhibition of IL-5 release [10]: 63.6 nM
EC50, inhibition of IL-8 release [10]: 58.2 nM
EC50, inhibition of IL-10 release [10]: 66.8 nM
EC50, inhibition of IL-13 release [10]: 69.6 nM
EC50, inhibition of IL-21 release [10]: 47.3 nM
EC50, inhibition of IL-31 release [10]: 29.9 nM
EC50, inhibition of TNF-α release [10]: 43.3 nM
Kd [11]: 59.3 nM
koff [11]: 0.0086 s⁻¹
kon [11]: 150000 M⁻¹ s⁻¹
EC50 (read off the curve) [12]: ~0.4 nM
ADCC EC50, regulatory T cells (LDH release) [13]: 2.25 nM
Fold diff to MAB10, ADCC EC50, regulatory T cells [13]: 1.03 fold
ADCC EC50, activated T cells (LDH release) [14]: 0.13 nM
Fold diff to MAB10, ADCC EC50, activated T cells [14]: 0.77 fold

B3: MAB10 (antibody, human IgG1, kappa)
heavy: QVTLKESGPALVKPTQTLTLTCSFSGFSLSTSGMGVGWIRQPPGKALEWIAHIWWDDDKYYNTALKTRLTISKDTSKNQVVLTMTNMDPVDTATYYCARIDWDGFAYWGQGTLVTVSSASTKGPSVFPLAPSSKSTSGGTAALGCLVKDYFPEPVTVSWNSGALTSGVHTFPAVLQSSGLYSLSSVVTVPSSSLGTQTYICNVNHKPSNTKVDKKVEPKSCDKTHTCPPCPAPELLGGPSVFLFPPKPKDTLYITREPEVTCVVVDVSHEDPEVKFNWYVDGVEVHNAKTKPREEQYNSTYRVVSVLTVLHQDWLNGKEYKCKVSNKALPAPIEKTISKAKGQPREPQVYTLPPSRDELTKNQVSLTCLVKGFYPSDIAVEWESNGQPENNYKTTPPVLDSDGSFFLYSKLTVDKSRWQQGNVFSCSVMHEALHNHYTQKSLSLSPGK
light: EIVLTQSPATLSLSPGERATLSCRASSSVSYMHWYQQKPGQAPRPWIYATSNRATGIPARFSGSGSGTDYTLTISSLEPEDFAVYYCQQFGAWPWTFGQGTKVEIKRTVAAPSVFIFPPSDEQLKSGTASVVCLLNNFYPREAKVQWKVDNALQSGNSQESVTEQDSKDSTYSLSSTLTLSKADYEKHKVYACEVTHQGLSSPVTKSFNRGEC
notes: MAB1 with M252Y, S254T and T256E (EU numbering) in the IgG1 Fc; also called MAB1 Heavy Chain + YTE
Kd [1]: 11.5 nM
binding result [2]: no binding (tested: 5,000 nM highest antibody concentration)
Kd [3]: 8.7 nM
Kd [4]: 12700 nM
Kd [5]: 816 nM
Kd [6]: 15600 nM
binding result [7]: no binding (tested: 5,000 nM highest antibody concentration)
Kd [8]: 992 nM
Maximum killing (%), ADCC, activated T cells [9]: 34.9%
EC50, inhibition of IFNγ release [10]: 11.8 nM
EC50, inhibition of IL-2 release [10]: 2.63 nM
EC50, inhibition of IL-4 release [10]: 2.88 nM
EC50, inhibition of IL-5 release [10]: 16.4 nM
EC50, inhibition of IL-8 release [10]: 9.55 nM
EC50, inhibition of IL-10 release [10]: 34.1 nM
EC50, inhibition of IL-13 release [10]: 5.3 nM
EC50, inhibition of IL-17a release [10]: 23.5 nM
EC50, inhibition of IL-21 release [10]: 2.75 nM
EC50, inhibition of IL-22 release [10]: 7.03 nM
EC50, inhibition of IL-31 release [10]: 2 nM
EC50, inhibition of TNF-α release [10]: 4.2 nM
Fold diff to GBR830, IFNγ [10]: 5.7 fold
Fold diff to GBR830, IL-2 [10]: 3 fold
Fold diff to GBR830, IL-4 [10]: 15.5 fold
Fold diff to GBR830, IL-5 [10]: 3.9 fold
Fold diff to GBR830, IL-8 [10]: 6.1 fold
Fold diff to GBR830, IL-10 [10]: 2 fold
Fold diff to GBR830, IL-13 [10]: 13.1 fold
Fold diff to GBR830, IL-21 [10]: 17.2 fold
Fold diff to GBR830, IL-31 [10]: 14.9 fold
Fold diff to GBR830, TNF-α [10]: 10.3 fold
Kd [11]: 7.2 nM
koff [11]: 0.0016 s⁻¹
kon [11]: 230000 M⁻¹ s⁻¹
EC50 (read off the curve) [12]: ~0.3 nM
ADCC EC50, regulatory T cells (LDH release) [13]: 2.31 nM
ADCC EC50, activated T cells (LDH release) [14]: 0.1 nM
